Measurements from the NTF2 design screens of Basanta et al. (2020).

Assay: protease stability score; higher = more stable; yeast display proteolysis, trypsin and chymotrypsin;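 further: relative to predicted unfolded state with 0 unfolded-like and 1 meaning tenfold more protease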

Row | Sequence | protease stability score
1 | DEDDELEDKFEEILRYSLHTGDWEEWRKRVDPHVKLIINGREIIGMERAAKFFIDLERKLGVDVKHHEIRHEDKQGDKLHLETRVELRQGDKVIILHMHLHLEKINGQWIIREVRFD | 1.47
2 | DEDDELKKTAVHDFTRDIATGDEESLHKLVDPHVRTTFDGQDLIGREHMWEHIHRLLRRYKNIRSEHIHIREIHVVDGVVESHTHIHMRIGEFKFIFNVHVFILKVDGVWFVHEAHYV | 0.886
3 | DEDDELMKRFVDLLLEQLQTGDWRYIARMVDPHVRSDVDIDGVHLKYHGREMYVKLFTDLGAKHMELKHIEVQGDKADIHSHVHFDGQEREIIIYSFKVNGRWRTKRLEVRTI | 0.932
4 | DEDDELSHRAVLLYMEAVLTGNEDFMSRLVDPDVRHIVGDKEYIGREQFVEWFNEFVEKVKNVTVRLRHHDIQGDKVVVHTEYRVNGRTWHEHVIILKINGKWRLKELRIHIE | 0.723
5 | DEDDELSRKAREFTSEVLRTGDEHSLLRMADPNTRNIVGNKEEHGWEHFEHFVREHWRRFGITNVDVKLEDLRVVDGRIEADMRVRVNGVERTWHFLIRKIDGKWRMESIEIR | 0.416
6 | DEDDELYKRVFELIEHDNHTGNEKSHLELADPHARLLYDGKLVIGRELLLEWMRRLGIDVIRHMDFKRFRIQGDKIEMDVRVHGEVNGRHIDTDTHLIARKVNGRWLLEEIRIK | 0.937
7 | DEDDEMWRELFEMYIRLARTGDEKADELLMDPDARIEIGDKRWHGREWTHFFLERVDHVHRVEFRVDDRRIQGDKVDVDGTFILDIHQGDKRIHTSIRSHLTVLKVDGKWRVHQMELR | 1.73
8 | DEDDENIEKVLRTLFKLIHTGDWRTWLRFFDPHVKLEIGDKRLHGREVAEEFIRHRIEHLGVDRVEVRLHSFDKQGNKLHSDMRLYVGDKEFNVEMHMEKVNGKWIVRVFSID | 1.38
9 | DEDDENNREMHDLSIRLFKTGDFDKIHKLMDPNAKLVIDIGDKHLHHHGREEASKRIFEIWHTLGVDHVHIKTHRHYGEKITIDMHLDINGQDTELIIVVLKINGRWLIQSVSMHFR | 1.35
10 | DEDDENVEQFIELFNEVMNTGDWRSLKRMIDPNARSRIGEKHLIGREMLEDFRHQADHVKIRDMKIERSHVINGRVLVDGIVHGEENFNGRRFLVNREVHLVVVKVNGRWFLRSIEFG | 0.809
11 | DEDDERSRLFLEEMMRTLLTGDERKSHELADPRVRINVNGRHIHGRELWNRFVHEARIRITHHRIHSRDIYNGRIELDVELRGDIHIGDKDIHLDTRIILFVLKVNGRWHLEIMEIV | 1.25
12 | DEDDEVAIKFLEDIIQVWETGDEEEFSRLFDPDYRVHIGDKTLHGREIVVQEILEHLRRLGIERFEVRIHIRHAHFYNGRLDLNGELVIIINGKELRRHTHFVVLKVNGRWLLEREEVK | 1.76
13 | DEDDEVSKFVAHVLSRVFHTGDEENLQKLADPNVRLHIGDKHHIGRETFIRWLRHFLDRADHVDSDVHDVRSIDGRIWADTRLRLEINGQTIEREVIIVIHKINGRWILHRIEIR | 1.49
14 | DEDDHFWERLTEIILHILQTGNEEALHRMLDPHMRLDYNGRSFHGRELAQKALMRFWEDLGVDHIRVKDRRVQGDKVHLHGEIIIDGRLHETREHWLIVNGRIKHVRLEIR | 0.696
15 | DEDDKDIEMVLRRLIEMVMTGDFEKAKRYADPDMQLDIGDKHFVGRETTITVLREWREHLGIDHVDIDHVHLHIIDGQVIVDLDITHRAENREIRVRFIHYVDKINGRWLVRRVDVKIH | 2.31
16 | DEDDKEAEKALRDMVHSWVTGDEQKNQELADPHVRVIIGEFNFVGRDDLDKWLREIRIHNIEIKDIDVFDGKVELKGTLTIRIGDKEVRHEVDFYMVKINGRWHLHRIQVH | 2.08
17 | DEDDKKAEDFANVIAHNLMTGDEEKHNKMIDPNVKIFINGQTVHGRDEFSKVMRRYKNLRIDWEVEELEIVNGQVRLKGHLHVEVNGVETRIDTHIVVTKVNGRWHMKEIYYH | 1.62
18 | DEDDKLLEKWVKDLREALRTGDEQTLLKLIDPNTRLEIGDKDFHGREVIVKLWKDLGMEIRDVKVHDIKRQGDFLELDIRIDVIINGVRENREHKIYALKVNGKWFVKTQIDE | 2.13
19 | DEDDKRSEKYLQKLLTDTHTGDETAYRDLADPHVRIEFNGREWHGWKRAHEVFHRILEEMRLKDLRIEDVRKQGEKVRLHIRLHSTVDGKQVDLELEIILLKVNGQWYIKDVTLI | 0.886
20 | DEDDNDMEEMVRLFDRDLHTGNEDLLTELADPHARFDINGVELHGMHEFVTIWLEIRFILRDSRVEHIHIQGDKAHIKSRLHGEMIFNGRTTIVHSEVHIYFEKIDGRWMIHRHIVK | 0.102
21 | DEDDQWSEMLAKKYLDRVLTGDEKRMKSLLDPNVRLSVNGVDMHGREVFVHWLRTVLNRVDHQELRLRHLHSQGDKAHVDTEVIENWDGVKIVKETELEFIFVNGRFHSVFHRER | 0.267
22 | DEDDRDMREFWELLFHYLLTGDWESLEKLIDPNARIRVNGKELHGMHYHIRQLTHEVKRFDHIDQRIHHSSVINGKIHLDIHLIINVDGQSFVIHIKMHVDKVDGRWLTRSVHIH | 1.09
23 | DEDDRHSERMSEYMIKVWMTGDEDAEKRLFDPHARIDVDGQEFIGREELHKISHEHLRKLGFDHFHVRHVELRLIDGKAHLSLDTEVRVGDFKFETSIYNNFEKVNGKWEIRELQVRIR | 1.2
24 | DEDDRIHEWSMRWLIQSLRTGDEDMLREYIDPHTRVHVNGKEEHGREAADKLAKRIDHLHHLIIRSEERQGDKIIMDIERDILIDGVRINTRVSLILLKVNGRWFMKSIHFL | 0.826
25 | DEDDRLAEDLLRLIYHALQTGDEKHLEDFMDPHTQIIIEWNGVRDDTHGREEFSRKFHEQVRELRVHFHQNSIHVINGRAHNDGRLELNINGKIIKLKVILEIQVINGRIKEIRIIVR | 1.95

Row | Sequence | protease stability score
26 | DEDDRVAEHALRLLFELLRTGDWEHILEMFDPNMRLDFDGKKWHGRESFRELFTRFLEEIRIHDVKVEDFKVFDGRVEVDTRIRGKYGDKETKLETKIVALKINGRWVLESSHYN | 0.898
27 | DEDEDDAERVFEELRKLIITGDEEEWEKLADPHVRVIINGRELHGREEWARFMRHMRIKNEHVHLRRMRVVDGRIEIDGEMDFRVDFNGQERRTRTDTNLIVTKYDGRWKLHHIEIR | 1.33
28 | DEDEDEIKRIVEIIEHALRTGDEDLMRRLFDPNARLDINGREVHGRESFIEILHHWLHELRFKSLRLHQVHIVDGKAHVDTRVTYHINGVEIHIETERNMLKVDGRWFITHEHHR | 0.025
29 | DEDEDESRRFHEEFIKRILTGDEDEFVKLLDPDVRIEIGDKKSIGRERALERFHRMLTEIRVHHVELRERTIQGDKVFLNMEVDLEFNGRRDRTKFHMIIWKVDGQWTLSEMRVK | 2.48
30 | DEDEDFIRHQIQLYIELFETGDWRSLKRLADPNARHHINGRDLHGMDLFRRHIEHMGIKIKHIKLRDMRVIGDKIELKVENNVEIDGRERSLEEEIIARKIDGRWILESSTIR | 0.39
31 | DEDEDHVRDMIEVFVRLMITGDEDTFKNLADPHVQFHFENVKLHGRHALLEWLRRLNREFKNIRVQILVHHVEVQGEKATVHSHIVVHVGDKTEHYDTELHIIVIDGRIKTVIIKRK | 1.5
32 | DEDEDIVRRHLHKLSKAWRTGDEETEKKLADPHARIQIGDKTDHGMEKMTKDWHEFLREMRVEIRIEDTRVQGDKVVNHIHIHSDIDGKEIILHSRIIVRKIDGRWHIESFVLI | 0.475
33 | DEDEDLLRRFTELWNHIYLTGDERMLHHLVDPHARLDVNGKEMHGRELLIKWMVKEIRDLGADHYRIDIKHYHFVDGRAHVQSTLEVDIGDKRITFYIRLILLKVNGRWVVHTIYYH | 1.55
34 | DEDEDSFRRISKLLSHAFRTGDEDLVLELLDPHVRIVIGDKELHGWEQMDRWVRELRIRDHEIKRLDIQGDKAIVDTRLLTRVGDFHYLIDVRIIFTKVDGQWHVHQFEFH | 1.52
35 | DEDEDTAHETWKILVHSLITGDERTMELLMDPNVQVHVGDKRHIGRERASRFHSEIRTEHVEMRTSEMQGNKVILHGRVVMRVNGKTLDHDFHLILDKIDGKWYITEIRFK | 0.517
36 | DEDEEAAEKMTELFRKSIKTGDEDLLTRLIDPHVRVDVNGRDIHGRESYFHELRNLGITNVEMQLKSRDVIGDKVHIDGTNRFNGRNHKVIIIVLKFNGRWVIEEIRIH | -0.045
37 | DEDEEAARHFLEQWLEALLTGDEETLTKLLDPHTRLIVDGQELVGRELWLEFFKRIKNMKIHRTEIRHTTSIGDKITLNIHVDVEVDGKRRRFDVQYVILKVNGRWLLKQVNNH | 0.498
38 | DEDEEALDRFLEEWRRYFETGNWEMISNLVDPHARLEQGDKRFHGREEVAKYIHHLVRHMRINDFDIEHRDVQGDKIRIHLRLNGEIDGRRTEFEIHMIYIKVNGRWVVKSMVVN | 0.882
39 | DEDEEASKIFWEIWLHNVRTGDEHAINELVDPHVKMVYGDKTFHGMKMLERLYRELGVKHMEVRLDDERLINGVLTLDTRLIIRVDGRTIDIKTEIIALKVNGKWVVKSITYR | 1.1
40 | DEDEEATRYALELMKKMHETGDEDSIKHLMDPHTKMDVNGVIFHGREAFHVWLNRFDVIRRFNIKHMKSVGDFLHIEGELDSEVNGKRIVTEVRIVSFKFNGRWHLSSTKIL | 1.53
41 | DEDEEAVRHVVEEWFKFLLTGDEESFEKMFDPSARLIIGDKHYHGRDLLSHVLRELRFKEHRIHDMEIRVVNGKAEVIIHGHEVGIWNGVESESHSEIIIIIDKYDGRWHFHSVEIIFR | 2
42 | DEDEEDAHRAVQKLTEVINTGDWETFEKFADPNTRFEYGNFHIHGREVIRHFWLHEVEKFKNITIFIRHVQVINGRVESHGENRFNGKSYHFHIIFRKFNGRWHLERIHLE | 1.61
43 | DEDEEDAQEILKRFVHANETGDWRILEELIDPNARYEQGDKHLVGREEVLRRMIELGIKHTYIHSFSVQGDKLRLDTSIQFENHRVKTHLILNKINGRWVIKSIHIH | 1.91
44 | DEDEEDARIAWEILVRVWKTGDEEELMKMADPNTRLEINGREFHGREHYLHMSRELRVERVDVRRLEVFDGKVHLEGESHMEVNGKRRTHKVVHIMRKIDGRWHIEYFIVH | 1.31
45 | DEDEEDARRFLEILQHHMRTGDWDSLYRLLDPHVRLHIGDKHHHGREEIRKHLHHLRFKELENRHITVYDGRMHVHGRIQGKFDGRDDKYESEIVVLKVDGQWLIEEIHVK | 2.06
46 | DEDEEDIRKAVKDFSENFQTGDEDRFKELADPNDRMHVNGREVHGRENIVKSLREEWKRLGVDHIHFEVRRITVQGEKIIVFSFLRIDNENERHHEDVLIIMRKVDGRWMIRTIRVR | 1.45
47 | DEDEEDKKWMSEHLENLIHTGDEENLLKLVDPHAKVLVDGRTRHGRETLETWLDRFLRELGVDRVESRITHFDRIDGKVHVIMSIHVNGVDFISHSISQKVNGRWVIRSLHYDER | 0.587
48 | DEDEEDMRHALELIYRTFETGDERTTEELMDPHARIDIGEFKLHGREEAVEFYRLLLRKVKNLTIKIHHVEVYGEKITIDGRIDFDGRKRRVIILVEKVDGKWVINEIRVH | 1.42
49 | DEDEEDVDRVSRRWARAMTTGDEDELRELLDPNTRYVQGDKHLHGRTQFERHLREMRFIIHDVRVDNITIIDGRMHIHGHVVGELRTEDHEHHFIFRFHLIVMKINGKWLIKHVDVQ | 0.819
50 | DEDEEEAEERVKEWIKALRTGDEDHILELVDPNDRFIINGVHLHGREFLLRWLRELRVDDVEVKTIKFVDGVAHVDTKMRVTVDGRETELETRLIWKKFDGRWFIESHRIR | 1.62
